Data taken from the DeepSol protein solubility set.

Experiment: soluble on expression in E. coli; label from the status in PepcDB or PDB records

Sequence	soluble on expression in E. coli
MALHQRMFSGNKINIVRKNHPLFLGYLNEQLCAYASAQLSQKEGRLLYLGVDEKYRQQGIATALMAQVWNFLHDSCQDKITLVQSDKAQAAGKLYKKLGFKTIRRLLSAQLIVN	not soluble
MATHKPINILEAFAAAPPPLDYVLPNMVAGTVGALVSPGGAGKSMLALQLAAQIAGGPDLLEVGELPTGPVIYLPAEDPPTAIHHRLHALGAHLSAEERQAVADGLLIQPLIGSLPNIMAPEWFDGLKRAAEGRRLMVLDTLRRFHIEEENASGPMAQVIGRMEAIAADTGCSIVFLHHASKGAAMMGAGDQQQASRGSSVLVDNIRWQSYLSSMTSAEAEEWGVDDDQRRFFVRFGVSKANYGAPFADRWFRRHDGGVLKPAVLERQRKSKGVPRGEA	soluble
RHAIAETLSQEIKQELKDLYMDKADFKVVFTKGKFNREGNETVAFHISTNPGEDFKPLVKVASGGELSRLMLAIKSAFSRREDKTSIVFDEVDTGVSGRVAQAIAQKIYKIGNHGQVLAISHIPQVIAISDYQYFIEKQSSKATTVSTVRLLNQEERIEEIAKML	not soluble
MSLVIVAIGCTFAAIPAYRIFCEQTSFGGLTQVAKDFDKIANMKKCEDRLIRVQFNSDVPSSMRWEFKPQQHEIYVHPGETALAFYTARNPTDKPIIGISSYNLTPFQAAYYFNKIQCFCFEEQILNPGEQVDLPVFFYIDPDYVNDPALEYLDSILLSYTFFEAKSGLKLPDPFDPKNRPSIAPSPDKVPEATK	not soluble
MGKNFDEAALLKSLEGVPDAEKVQKLIKKLAESEKQNAELKIKVLDYDKVVKVKDLTEKKLERNNQILLRTEEAKSKLEELCRGLQKANHQTREEACAKMKKLEVERGLAVEQLKVTLKDIEKTMAEGRSKSDSLAEDNKKLSEKFSEIGHQYEEKMKVIDQQIQKKEKYWEEYGKTKDLEIKLLTAKLESASIQVKKSGMEKDELAKIMLEETARVGGALKTEKALREQVQEYSAKYSELTSCLSKSNEAFDKFKDEISRVNKKCMQVEKEGLSYKKKSDEANKKVLVLTMTNQEYAEKIATSDKKIQMLENLCRALRKGEQEPVTTAETTEAN	not soluble
MGSDKIHHHHHHAQKNAAAVTLNLAKAVTQSPKTVLMSELASDVRYFPLETTDNCLLGNECSIIYAGNSIIAGDAQTRSFYRFDKNGKFMNKIGRQGQGPEEYAVGLLFFTDPDNQKLYVQDFQDIICYGFNGKFLRRIPAPHLNMGTGAVDGQGSILYCDNNYFMRKDNPQQLFLIDENGKKLKIWKGYMEPGKKYGVNLSTRDVMYCYGGDIYFKPALENLIYKIDANRKKTLAWKFDCSGKDVDVSANEIDPGKRFQSIAVQQVFESDRYFFVLYVLKNESFVGLYDKQKKSFSNVIIKDDLAAGFDFTPPGTGLGNQLANARMVGYLSKGKRYSKALLPERKKELDELINRLDEEDNPVMVVVTLK	not soluble
MSLKSSTEKKLAAARGTAELIVEDAKKEAETTKKEALLEAKEENHRLRTEIENELRGRRTETQKAENRLLQREENLDRKDTSLSKREATLERKEESISKRQQQIEEKESKLAEMIQAEQTELERISALSKEEAKSIILNQVEEELTHDTAIMVKESENRAKEESDKKAKNILSLAIQRCAADHVAETTVSVVTLPNDEMKGRIIGREGRNIRTLETLTGIDLIIDDTPEAVILSGFDPIRREIARIALEKLVQDGRIHPARIEEMVDKARKEVDEHIREVGEQATFEVGIHSIHPDLIKILGRLRYRTSYGQNVLNHSLEVSKLAGILAGELGEDVTLAKRAGLLHDIGKAIDHEIEGSHVEIGVELATKYKENDVVINSIASHHGDTEATSVIAVLVAAADALSAARPGARSETLENYIRRLEKLEEISESYDGVEKSYAIQAGREVRIIVEPDTIDDLSSYRLARDIRKRIEEELDYPGHIKVTVIRETRAVEYAKEGHHHHHH	not soluble
MPRSLANAPIMILNGPNLNLLGQRQPEIYGSDTLADVEALCVKAAAAHGGTVDFRQSNHEGELVDWIHEARLNHCGIVINPAAYSHTSVAILDALNTCDGLPVVEVHISNIHQREPFRHHSYVSQRADGVVAGCGVQGYVFGVERIAALAGAGSARA	soluble
MNYGFVKVAAAVPHVKVADCKFNVERIESQIAIAEGKGVQIIVFPEMSITGYTCGDLFGQQILLEEAEMGLMQILNNTRQLDIISIVGMPVVVNSTVINAAVVIQKGKVLGVAAKTYLPNYKEFYEQRWFTSALQLTEDTVRLCGQIVPIGANLLFETSDTTFGIEICEDLWATIPPSSSLALQGAEIIFNMSADNEGIGKHHYLCSLISQQSARCIAGYVFSSCGFGESTTDVVFAGNGLIYENGSLLARSKRFCMEEQLIISEIDVERIRAERRINTTFAASQGNPGDKKAISVATEFVNSKELTLTRDFNSHPFVPQGAELDEHCEEVFSIQIAGLAQRLVHTKAKTAVVGISGGLDSTLALLVCVKTFDKLGLPRKDILGVTMPGFGTTDRTYNNAIDLMKSLGISIREISIQDACIQHFKDIDHDINVHDVTYENSQARERTQILMDIANQTWGMVVGTGDLSELALGWATYNGDHMSMYGVNGSIPKTLVKYLVQWVAENDMDEDAKATLLDIVDTPISPELIPADENLEHHHHHH	soluble
MCPKCGTECDKLFDSVCRDCFFETFKLIDLPLVLHVKICSSCGAYFHRSRWENIGNLEEVVLKAVENALFIHDEAGDVELYLEPKEITPYIYMVRAEVDAIVRGEPVHAEAATEVRVQRIACDMCSRESGGYFEAIIQIRAAGRFPTEEEKRRCSAIAREAMESMKKKGDRLAFISDYQEQKEGIDLYMGSMNASRQVCRMIISELGGSFAESPTLVGMKDGKNLYRITFAMRLPLEHHHHHH	not soluble
MGSSHHHHHHSSGLVPRGSHMKAMNKVWVIGDASVDLVPEKQNSYLKCPGGASANVGVCVARLGGECGFIGCLGDDDAGRFLRQVFQDNGVDVTFLRLDADLTSAVLIVNLTADGERSFTYLVHPGADTYVSPQDLPPFRQYEWFYFSSIGLTDRPAREACLEGARRMREAGGYVLFDVNLRSKMWGNTDEIPELIARSAALASICKVSADELCQLSGASHWQDARYYLRDLGCDTTIISLGADGALLITAEGEFHFPAPRVDVVDTTGAGDAFVGGLLFTLSRANCWDHALLAEAISNANACGAMAVTAKGAMTALPFPDQLNTFLSSHSLAQAMTVK	soluble
MPEEYIMSSKACIYVLGGAANTAALFDFDGVYILDGGFAEKNPGFVAHVRDVSAVLLAAPTLGNLGTTSALLEQGKPLPVFTNTKPFKTAKPGSSGEIAKAIQEANSKILSVAPPLFNPKYPANIIYQSAAKGVLSLYILAGDVKDAEVITKALAGGNEAEVEKAAAEHGTIGVLLWRPAMTDQSVVRVLISGTSSLSRIQQSLDKAAKSLPFLNVPTVKSKDALSDIPAPAVPRPVAGKPSARPATTTGTATRPTRPAVPAASAPRALTSRAPAGPSRPTTTRNAAPAPRTAVPSRATVLTKTAPASKAPTRAPVPARSAPAPPRGAPAKPAANTAKAEPIAQKKTVGKVQGTAPSKPAPAAPASAATSPAPAPEAPRRDPNNVTIVLDDSLSPEDFNQGSAPMDIVVIPPTPEPPRHEVAQATHPEESIIDAEDLAKAPLEVDDVANLADVEDEIPPPVDAFKKPEPHPEPNVSGGSEEDKIPEPVDAFKKPDPVELDDFDPLKPSHPEPSAPVVPSDHIIIATPDPELPDIVAAVPFVSPSPKGPNDGLVKLDDELEKIAPGFEEPLIPQAPRDDGTLAECSEEVSKLVEISMDTDNSAEVAADLAKAVGEVTQLSADLQNLGLDEKTDEYVRKLSNQMIEDATLPFTSALASSIVTSNGSETNGHGEQAHAAQNGGIDHQKEIPKHDLMQSRSSVIENGAAVQYEKTDPALDDVLNACAQESEKIDASHPDNLHMPAAPGSAAPAKPVKFARPYYFDVVTVPRNEKLETSVAADGLQEFISKVRSRNVILASKDISGEQLQAILCGKQTWCDSAHPCNVIPTHSSPMLLDFRQKNEEQFAANNLQFSIPVEKQRTTVSSDAGAIEYELARVDLL	soluble
MKTGDKQFAVIGLGRFGLAVCKELQDSGSQVLAVDINEDRVKEAAGFVSQAIVANCTHEETVAELKLDDYDMVMIAIGADVNASILATLIAKEAGVKSVWVKANDRFQARVLQKIGADHIIMPERDMGIRVARKMLDKRVLEFHPLGSGLAMTEFVVGSRLMGKTLSDLALCKVEGVQVLGFKRGPEIIKAPDMSTTLEIGDLIIVVGPQDKLANKLKSLLEHHHHHH	not soluble
MGSDKIHHHHHHMKFIVTPDIFEKLPDMYVGVVVAKGIDNSKNYPEIDRLLNRYMKYSQQKFDGINVKQNDEIIPYREAFRKIGINPNRYPCSAEALFKRLSKGKNLPHINPLVNLNNAISLKYTVLMGTHSLDGVQDDIIMRLTKSGDNFVPLGKDEVEEPDEGEVVYAVGSDVCIRRWTWRQSEHSKITDQTHDVFFPIDGFVDVNRDAVDKAREDLVGKSKEIFGVETQVGYVDKNHPEFEWE	not soluble
MSMLQRPGYPNLSVKLFDSYDAWSNNRFVELAATITTLTMRDSLYGRNEGMLQFYDSKNIHTKMDGNEIIQISVANANDINNVKTRIYGCKHFSVSVDSKGDNIIAIELGTIHSIENLKFGRPFFPDAGESIKEMLGVIYQDRTLLTPAINAINAYVPDIPWTSTFENYLSYVREVALAVGSDKFVFVWQDIMGVNMMDYDMMINQEPYPMIVGEPSLIGQFIQELKYPLAYDFVWLTKSNPHKRDPMKNATIYAHSFLDSSIPMITTGKGENSIVVSRSGAYSEMTYRNGYEEAIRLQTMAQYDGYAKCSTIGNFNLTPGVKIIFNDSKNQFKTEFYVDEVIHELSNNNSVTHLYMFTNATKLETIDPVKVKNEFKSDTTTEESSSSNKQ	soluble
MGSDKIHHHHHHMNETPLRLLEMLTQTREDLWRAAQALTERGVTRIILTGSGTSYHGALTARTFMQRWCALPVDVCWPFMLDDETLARSGKALVVGISQGGGSLSTLAAMERARNVGHITASMAGVAPATIDRAADYILTVPCGEETAGAKTKGYHCTVLNLMLLALAVAGQQQRLDGEQRRSLLLRMEKTFNHLPALVTASQAWAQTNALALRDSADIRLTGPATLFGTVQEGALKMLETLRCPVSGYEFEEFIHGIYNAFNAQSALIMLDPQPDARQDRLAQILGEWTPSIYRIGPQVENNGLNLNFPFVNDEDFAVFEYIIPLQMLCAILPPQKGINPAIPKDPQFHQKMKSKQEI	not soluble
GAMGSGGGGEHQHGEEMMAAVPAPDAEGAAGFDEFPIGEDRDVGPLHVGGVYFQPVEMHPAPGAQPSKEEADCHIEADIHANEAGKDLGYGVGDFVPYLRVVAFLQKHGSEKVQKVMFAPMNAGDGPHYGANVKFEEGLGTYKVRFEIAAPSHDEYSLHIDEQTGVSGRFWSEPLVAEWDDFEWKGPQW	soluble
MVLVVGSGAGGATLARELAIRGIDVTVIERGPCVKDSDAFLCYDEAPDVDILRTSCAGGSTLVAAGNAVRVLENTLKDYGVDITEDLHAIEAELRVRELPDTHTGRGTALIMDAAESLGLGVKKMPKFIDPDKCRPCGKCSFGCPRAAKWSARRFLDEAVEHGAVLIEETEAKNIIVRNGSVSGLRTSRGDFHDETVVLAAGAIETPRILMRAGIDAGNGLFMDTFVTVGGILEGVGFCDEVQMNALIELDGVILSPHFSTLLFPEDDRRNVLGIMVKIADERSGRVEADRIVKHHTVRDISLLSGGAAIAGSILSRAGVGAGTLRSTRPRGAHPGGTASLGEVVDENLETSIEGLFVADASVLPAAPGAPPILTIMALARRLARHIVSVLLEHHHHHH	not soluble
MGSDKIHHHHHHMTAVKHAFTELPTIDIRDLAGDDLARRQAVADAIGRAAREVGFFYITGHGIDPALIAGVREAAKQIFALPMEEKMNYYIGHSKSHKGYVPEGEEIYGSGKPDHKEAFDIGFQAADDHPLVLAGTPLIGANEWPDLPDFRARVLAYYDAVFALGHRLFDAFALALGLPEGYFKPMVTCPPAKLRLIHYPFDASVEDVPGIGAHTDYECFTLLLADQPGLEVLNEESVWIDAPPVKNAAGEEAFVINIGDMLEVLSAGTFVATAHRVRKVPQERYSFPLFFACDYHTLIRPLPTFLAAGEAGEYQELSIGEHMWSQALQTYRYLREKVNRGELQLPERARGTNTFGHLKKQAQQKNP	not soluble
